{"source": "patent US20080279865A1", "about": "“Therapy of Prostate Cancer With Ctla-4 Antibodies and Hormonal Therapy” (Pfizer, Inc., Pfizer Products, Inc., priority 2005, published 2008)", "key": {"[1]": {"experiment": "Single agent studies of ticilimumab in melanoma (diarrhea)", "format": "in vivo, human", "text": "In contrast, in the present study, 2 out of 3 patients treated with the combination of hormonal therapy and CTLA4 blockade had grade 3 diarrhea. […] Diarrhea is considered to be pharmacologically mediated in that it is likely related to the mechanism of action of ticilimumab. […] A possible correlation between tumor response in melanoma and putative “autoimmune breakthrough events” has been reported for single agent CTLA4 blockade in the absence of any other therapy (see Attia et al., J Clin Oncol. 23(25):6043-6053 (2005))."}, "[2]": {"system": "prostate cancer", "experiment": "Neoadjuvant ticilimumab plus leuprolide and bicalutamide before prostatectomy in high risk prostate cancer", "format": "in vivo, human", "text": "Patients with prostate cancer who are eligible for radical prostatectomy and who have an intermediate or high risk of recurrence according to current medical standards are candidates for antibody-hormonal combination neoadjuvant therapy. The target population for this study is defined using the risk of biochemical recurrence instead of the probability of pathologically confined cancer. This approach is supported by the observation that patients with disease confined to the prostate may have a biochemical recurrence despite “definitive” local treatment. Therefore, this patient definition is more comprehensive. Considering recent data showing that a time to PSA failure of less than 2 years predicts for distant failure, patients who are at high risk for early PSA failure are candidates for neoadjuvant (and adjuvant) antibody-hormonal combination therapy as disclosed herein.\nPre-operatively, approximately after the end of the last cycle of antibody-hormone combination therapy and prior to scheduled prostatectomy, the following evaluations are completed: any adverse events, ECOG PS, vital signs and weight, physical examination (including signs of autoimmunity), ECG, and DRE. Samples for hematology and chemistry panels, along with PT, APTT, CRP and PSA are obtained.\nPost-operative assessments are performed approximately two weeks following surgery. The evaluation includes physical examination (including autoimmunity), vital signs, ECOG performance status, body weight, hematology, and chemistry panels, PT, APTT, TSH, T3, T4, amylase, lipase, CRP, urinalysis. Additional samples are obtained for autoantibody panel, PSA, testosterone, HAH titer and PK. All patients are assessed for pathological assessment of the surgical specimen and adverse events.\nThe patient is premedicated with antihistamine (H1) at least one half hour prior to infusion of anti-CTLA4, but premedication is not required. Patients were administered leuprolide (LUPRON) and bicalutamide (CASODEX) in combination with an anti-CTLA4 antibody (ticilimumab). More specifically, on day 1 (D1), the patient was administered a single IV infusion (100 mL/hr) of anti-CTLA4 antibody at a dose of 1 mg/kg, 3 mg/kg, or 6 mg/kg, in combination with a 7.5 mg IM injection of leuprolide (LUPRON DEPOT). A minimum of 3 patients were administered each antibody dose. The study was amended to reinitiate dose escalation at a lower dose level, i.e., 1 mg/kg. Three patients received that dose level, and are undergoing surgery (after 3 months of combination therapy). Dose escalation continued to 3 mg/kg. Dose escalation is ongoing at 6 mg/kg and 10 mg/kg.\nBicalutamide (CASODEX) was administered orally, in tablet form, at a dose of 50 mg, once per day for the first fourteen days commencing on day 1 (D1). Preferably, bicalutamide was taken at the same time each day on days D1-D14, and a patient medication diary was used to record any interruption of bicalutamide dosing.\nProphylactic anti-emetics and anti-diarrheals were given as appropriate. The treatment was repeated after 28 days with a […] of antibody and 7.5 mg IM injection of LUPRON DEPOT for a maximum of three cycles (D1, D28, and D56) preceding surgery."}}}
{"substance": "ticilimumab: human IgG2 anti-CTLA4 antibody; heavy chain SEQ ID NO:26, light chain SEQ ID NO:32", "values": [{"measurement": "patients with diarrhea", "setting": "[1]; multiple doses of 6 mg/kg", "value": "none"}, {"measurement": "patients with diarrhea grade 3", "setting": "[1]; single dose of 6 mg/kg", "value": "1 out of three"}, {"measurement": "diarrhea in a patient", "setting": "[2]; 3 mg/kg ticilimumab and hormonal therapy", "value": "prolonged diarrhea"}, {"measurement": "prostatectomy specimen findings", "setting": "[2]; 6 mg/kg, patient 1005-1004, after three months of antibody therapy and hormonal therapy (leuprolide and bicalutamide), FIG. 4", "value": "detectable tumor regression and signs of an inflammatory infiltrate around tumor cells"}, {"measurement": "patients who experienced diarrhea and did not complete the study", "setting": "[2]; cohort of three patients at 6 mg/kg with hormonal therapy", "value": "two"}, {"measurement": "severity (duration and magnitude) of the diarrhea versus any other study at any dose level", "setting": "[2]; combination of hormonal therapy and CTLA4 blockade", "value": "significantly higher"}, {"measurement": "patients with grade 3 diarrhea", "setting": "[2]; combination of hormonal therapy and CTLA4 blockade, cohort of three patients at 6 mg/kg", "value": "2 out of 3"}, {"measurement": "treatment effect in prostatectomy specimens", "setting": "[2]; several patients treated with 1 mg/kg and 6 mg/kg, with androgen blockade", "value": "regression of carcinoma and benign prostate glandular tissue, lymphocytic infiltrates (see FIG. 4), and signs of acute and chronic inflammation"}]}
